This passage reports protein stability index results from the supplement of paper PMC10724198.

The data set has as its system Saccharomyces cerevisiae. The data set is described as follows: protein stability index of tFT-peptide fusion (C-terminal peptide) (PSI (0-1 scale)); higher = more stable (slower turnover). The following applies: temperature: 30 C. As for the experimental part:
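MPS profiling in S. cerevisiae of the yeast C-terminome library: the last 12 aa of each annotated ORF are fused to the C-terminus of a sfGFP-mCherry timer, after a GGGS linker. Cells are FACS-sorted into 8 mCherry/sfGFP bins and deep-sequenced. PSI runs from 0 (unstable) to 1 (stable); wild type and das1Δ backgrounds, two technical replicates each.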

Where [1] appears, read: genetic background: das1 deletion.

± gives the standard deviation of the averaged measurements.

With FRPDEMNIVTKF [PRM15 C-terminal 12 aa], the protein stability index under setting [1] worked out at 0.68 ± 0.022 and the protein stability index (genetic background: wild type) worked out at 0.753 ± 0.024.

Turning to FRTDEVYAAWRD [KAE1 C-terminal 12 aa], the protein stability index reads like this: under setting [1], 0.6891 ± 0.0051; (genetic background: wild type) 0.6814 ± 0.0024.

For the sequence FSIRSISKFIFT [YOR325W C-terminal 12 aa], the protein stability index runs as follows: under setting [1], 0.649 ± 0.014; (genetic background: wild type) 0.665 ± 0.051.

FSNLLWFDQNFA [STB4 C-terminal 12 aa]: the protein stability index is 0.742 ± 0.014 under setting [1] and 0.786 ± 0.079 (genetic background: wild type).

As for FSTEYLGLICTY [YLR232W C-terminal 12 aa], the protein stability index runs as follows: under setting [1], 0.49388 ± 0.0004; (genetic background: wild type) 0.5496 ± 0.0009.

Consider FTMSLAHCLMFS [YJL169W C-terminal 12 aa], for which the protein stability index reads like this: under setting [1], 0.636 ± 0.016; (genetic background: wild type) 0.668 ± 0.066.

“FVAYTTLTFKKT [YMR001C-A C-terminal 12 aa]”: the protein stability index turned out to be 0.6649 ± 0.0001 under setting [1] and 0.67 ± 0.037 (genetic background: wild type).

FVEGGDGKYVLN [YPL113C C-terminal 12 aa]: the protein stability index is, setting by setting: under setting [1], 0.688 ± 0.016; (genetic background: wild type) 0.676 ± 0.014.

As for FVKDEIHKDILD [PEX21 C-terminal 12 aa], the protein stability index is, setting by setting: under setting [1], 0.7 ± 0.017; (genetic background: wild type) 0.685 ± 0.011.

FVKVIDYTSNGW [PBY1 C-terminal 12 aa]: the protein stability index turned out to be 0.676 ± 0.0086 under setting [1] and 0.685 ± 0.015 (genetic background: wild type).

With “FVLSISFRQEQT [YER172C-A C-terminal 12 aa]”, the protein stability index reads like this: under setting [1], 0.577 ± 0.042; (genetic background: wild type) 0.591 ± 0.025.

FYSLCEKGGYLK [BPT1 C-terminal 12 aa] returned a protein stability index under setting [1] of 0.679 ± 0.014 and a protein stability index (genetic background: wild type) of 0.66733 ± 0.00062.

As for FYSVFALMVIFV [YIP1 C-terminal 12 aa], the protein stability index by setting is: under setting [1], 0.178 ± 0.013; (genetic background: wild type) 0.122 ± 0.003.

Consider GAAVGGALAFLI [DDR2 C-terminal 12 aa], for which the protein stability index is 0.702 ± 0.02 under setting [1] and 0.677 ± 0.0076 (genetic background: wild type).

On to GAIMGAAAFALL [TOS6 C-terminal 12 aa], for which the protein stability index reads like this: under setting [1], 0.699 ± 0.013; (genetic background: wild type) 0.729 ± 0.053.

Consider GAQPHLYIPDED [USA1 C-terminal 12 aa], for which the protein stability index under setting [1] is 0.6896 ± 0.0026 and the protein stability index (genetic background: wild type) was 0.6982 ± 0.003.

Take GCSLQISYARRD [GBP2 C-terminal 12 aa]: the protein stability index by setting is: under setting [1], 0.706 ± 0.018; (genetic background: wild type) 0.6525 ± 0.0037.

The sequence GCVKMYKFDLND [MET30 C-terminal 12 aa] gave a protein stability index under setting [1] of 0.713 ± 0.044 and a protein stability index (genetic background: wild type) of 0.7322 ± 0.0023.

In the case of GDLLSLKGEIMQ [ALK2 C-terminal 12 aa], the protein stability index under setting [1] was 0.689 ± 0.022 and the protein stability index (genetic background: wild type) stood at 0.691 ± 0.029.

GDVSNLPYLDEL [QCR2 C-terminal 12 aa]: the protein stability index came out at 0.694 ± 0.013 under setting [1] and 0.722 ± 0.039 (genetic background: wild type).

Regarding GDYTVKQPEATK [AIM9 C-terminal 12 aa], the protein stability index worked out at 0.703 ± 0.013 under setting [1] and 0.672 ± 0.029 (genetic background: wild type).

GEDPYMDLMKEF [TPK3 C-terminal 12 aa] yielded a protein stability index under setting [1] of 0.745 ± 0.013 and a protein stability index (genetic background: wild type) of 0.733 ± 0.036.

Turning to GEDTGPTVEEVD [SSA3 C-terminal 12 aa], the protein stability index worked out at 0.682 ± 0.013 under setting [1] and 0.684 ± 0.015 (genetic background: wild type).

For GGGVLQLISYIL [YSY6 C-terminal 12 aa], the protein stability index amounted to 0.706 ± 0.0057 under setting [1] and 0.656 ± 0.015 (genetic background: wild type).

Consider GGKDKMVRLWTH [RSA4 C-terminal 12 aa], for which the protein stability index by setting is: under setting [1], 0.691 ± 0.011; (genetic background: wild type) 0.698 ± 0.0076.

Regarding GGPFPYYFNTFC [YKL169C C-terminal 12 aa], the protein stability index amounted to 0.704 ± 0.028 under setting [1] and 0.53 ± 0.027 (genetic background: wild type).

Turning to GHSHKHKGHQKK [KRI1 C-terminal 12 aa], the protein stability index by setting is: under setting [1], 0.673 ± 0.008; (genetic background: wild type) 0.667 ± 0.018.

With GIHPPEPIAAAA [KTI11 C-terminal 12 aa], the protein stability index is 0.3 ± 0.031 under setting [1] and 0.357 ± 0.017 (genetic background: wild type).

Turning to GKNQWFFSKLRF [RPL27A C-terminal 12 aa], the protein stability index is, setting by setting: under setting [1], 0.707 ± 0.0096; (genetic background: wild type) 0.683 ± 0.013.

Turning to GLKQKSTIVTVD [CDC5 C-terminal 12 aa], the protein stability index is, setting by setting: under setting [1], 0.6917 ± 0.0015; (genetic background: wild type) 0.717 ± 0.078.

In turn, GLLVVFDRIDVK [MET7 C-terminal 12 aa] had a protein stability index under setting [1] of 0.667 ± 0.015 and a protein stability index (genetic background: wild type) of 0.634 ± 0.013.

As for GLTLIGRQSDSI [RAD7 C-terminal 12 aa], the protein stability index was 0.7025 ± 0.0011 under setting [1] and 0.71 ± 0.074 (genetic background: wild type).

GMYSRAYETHTL [ERG7 C-terminal 12 aa]: the protein stability index amounted to 0.7 ± 0.012 under setting [1] and 0.696 ± 0.022 (genetic background: wild type).

Take GNAEFAASLLFQ [DDI1 C-terminal 12 aa]: the protein stability index by setting is: under setting [1], 0.7205 ± 0.0066; (genetic background: wild type) 0.7022 ± 0.0025.

Regarding GNEPMEKFIQSL [YMR090W C-terminal 12 aa], the protein stability index reads like this: under setting [1], 0.694 ± 0.005; (genetic background: wild type) 0.669 ± 0.0072.

On to GNSGGSNNSSWW [DED1 C-terminal 12 aa], for which the protein stability index runs as follows: under setting [1], 0.71484 ± 0.00065; (genetic background: wild type) 0.697 ± 0.02.

As to GNTGSGGYDNAW [RPB3 C-terminal 12 aa], the protein stability index was 0.704 ± 0.052 under setting [1] and 0.723 ± 0.026 (genetic background: wild type).

As for GPDAPLSKMKYE [SCS7 C-terminal 12 aa], the protein stability index runs as follows: under setting [1], 0.684 ± 0.0086; (genetic background: wild type) 0.704 ± 0.0071.

Turning to GQLLSGSCLLNM [YBR226C C-terminal 12 aa], the protein stability index by setting is: under setting [1], 0.686 ± 0.013; (genetic background: wild type) 0.679 ± 0.053.

In the case of GRPSMVPIAELK [MLH3 C-terminal 12 aa], the protein stability index was 0.672 ± 0.019 under setting [1] and 0.714 ± 0.062 (genetic background: wild type).

GSGDEPDSKRRK [YCR051W C-terminal 12 aa]: the protein stability index is 0.693 ± 0.044 under setting [1] and 0.666 ± 0.037 (genetic background: wild type).

As for GTQVMYISEQKI [LSM6 C-terminal 12 aa], the protein stability index by setting is: under setting [1], 0.698 ± 0.0048; (genetic background: wild type) 0.713 ± 0.016.

As to GVEKYWGILSNE [SCW4 C-terminal 12 aa], the protein stability index under setting [1] was found to be 0.723 ± 0.0089 and the protein stability index (genetic background: wild type) came out at 0.726 ± 0.039.

On to GVETIAKCIDLL [CAR2 C-terminal 12 aa], for which the protein stability index is, setting by setting: under setting [1], 0.71 ± 0.017; (genetic background: wild type) 0.698 ± 0.011.

Regarding GVIIELGSWSAW [YDR415C C-terminal 12 aa], the protein stability index runs as follows: under setting [1], 0.7055 ± 0.0066; (genetic background: wild type) 0.71701 ± 0.00054.

In the case of GWLQDKHFEKYL [YOR338W C-terminal 12 aa], the protein stability index reads like this: under setting [1], 0.705 ± 0.022; (genetic background: wild type) 0.447 ± 0.03.

Regarding HAKGSGNTMNRG [TAP42 C-terminal 12 aa], the protein stability index reads like this: under setting [1], 0.691 ± 0.029; (genetic background: wild type) 0.664 ± 0.015.

Regarding HCQPQEILVLRQ [PEX10 C-terminal 12 aa], the protein stability index by setting is: under setting [1], 0.7094 ± 0.0062; (genetic background: wild type) 0.7 ± 0.013.

As for HDRSESDSDLDI [PLP1 C-terminal 12 aa], the protein stability index stood at 0.671 ± 0.015 under setting [1] and 0.677 ± 0.015 (genetic background: wild type).

As for HELSKDFSNLGI [NAM7 C-terminal 12 aa], the protein stability index under setting [1] is 0.7008 ± 0.00089 and the protein stability index (genetic background: wild type) turned out to be 0.683 ± 0.038.

On to HGNWSRVVTDLN [BAT2 C-terminal 12 aa], for which the protein stability index stood at 0.6869 ± 0.0056 under setting [1] and 0.722 ± 0.1 (genetic background: wild type).

Take HLENELKDQQEL [ATM1 C-terminal 12 aa]: the protein stability index came out at 0.718 ± 0.0099 under setting [1] and 0.715 ± 0.017 (genetic background: wild type).

Take HLPKATSLPYEK [YER097W C-terminal 12 aa]: the protein stability index runs as follows: under setting [1], 0.677 ± 0.0085; (genetic background: wild type) 0.679 ± 0.055.

For HPWFAEYYHHAS [PHO85 C-terminal 12 aa], the protein stability index by setting is: under setting [1], 0.7438 ± 0.0043; (genetic background: wild type) 0.7174 ± 0.0026.

For the sequence HRSFFKDIIPEL [KIN82 C-terminal 12 aa], the protein stability index is, setting by setting: under setting [1], 0.723 ± 0.013; (genetic background: wild type) 0.693 ± 0.022.

On to IAEGKSVGIIGA [HXK2 C-terminal 12 aa], for which the protein stability index runs as follows: under setting [1], 0.694 ± 0.022; (genetic background: wild type) 0.682 ± 0.018.

For IAKEHDKIPKFL [INA22 C-terminal 12 aa], the protein stability index is 0.695 ± 0.027 under setting [1] and 0.672 ± 0.06 (genetic background: wild type).

In the case of IASKNNWLPLQW [SIW14 C-terminal 12 aa], the protein stability index stood at 0.73114 ± 0.00013 under setting [1] and 0.732 ± 0.045 (genetic background: wild type).

Regarding IDDEDVVSLFAK [RBG2 C-terminal 12 aa], the protein stability index runs as follows: under setting [1], 0.714 ± 0.035; (genetic background: wild type) 0.732 ± 0.057.

With IEEAASSLGFKR [PES4 C-terminal 12 aa], the protein stability index amounted to 0.726 ± 0.027 under setting [1] and 0.701 ± 0.023 (genetic background: wild type).

As for IEELTDTLNSTI [PEX29 C-terminal 12 aa], the protein stability index is, setting by setting: under setting [1], 0.7059 ± 0.0039; (genetic background: wild type) 0.698 ± 0.024.

For the sequence IEQSFGVIEYFP [SCW11 C-terminal 12 aa], the protein stability index came out at 0.717 ± 0.037 under setting [1] and 0.71 ± 0.011 (genetic background: wild type).

On to IFHELKRQNSKN [RGD2 C-terminal 12 aa], for which the protein stability index runs as follows: under setting [1], 0.739 ± 0.035; (genetic background: wild type) 0.717 ± 0.052.

For “IFVYPLFLLSTF [YEL053W-A C-terminal 12 aa]”, the protein stability index under setting [1] was 0.482 ± 0.051 and the protein stability index (genetic background: wild type) amounted to 0.335 ± 0.0099.

For the sequence IGTLIPEPGVNV [DAP1 C-terminal 12 aa], the protein stability index reads like this: under setting [1], 0.6825 ± 0.0027; (genetic background: wild type) 0.676 ± 0.032.

On to IHCRSQNCLSLS [VBA4 C-terminal 12 aa], for which the protein stability index is 0.687 ± 0.024 under setting [1] and 0.681 ± 0.016 (genetic background: wild type).

On to IHKENKEFYLIL [YGL118C C-terminal 12 aa], for which the protein stability index runs as follows: under setting [1], 0.703 ± 0.015; (genetic background: wild type) 0.6731 ± 0.00094.
